Legend:
[1] = molecular target: bovine brain αβ-tubulin (taxol-stabilised microtubules, dolastatin-induced rings or DARPin-capped free dimer for biochemical assays) (bovine) (UniProt Q6B856); assay: co-sedimentation; 1 μM kinesin with 0-10 μM taxol-stabilised microtubules, BRB80 + 100 mM KCl, 2 mM AMP-PNP, 20 μM taxol, 20 min at 25 °C; pellet and supernatant by SDS-PAGE; Kd from a quadratic fit
[2] = molecular target: bovine brain αβ-tubulin (taxol-stabilised microtubules, dolastatin-induced rings or DARPin-capped free dimer for biochemical assays) (bovine) (UniProt Q6B856)

“HsKHC-MDN_(L2-CaKip3) (HsKHC-MDN with loop-2 IASK, I41-K44, replaced by CaKip3 loop-2 F116-H144) (from UniProt P33176;A0A1D8PKA4) (domain or fragment)” showed a fold greater affinity than HsKHC-MDN [1] of 7 fold, a microtubule-gliding speed of HsKHC-MDN (L2-CaKip3) relative to HsKHC-MDN (taxol-stabilised microtubules) [2] of 2 fold and a microtubule-stimulated ATP turnover at steady state, relative to HsKHC-MDN [2] of 2 fold.

From article PMC9300613
